Data: patent publication US20250243261A1 (CZ BIOHUB SF, published 2025)
Residue numbers refer to the chain shown, from its start. In names and notes the source's numbering stands. Like-named read-outs stand apart in the source and are kept apart here.

T1: full-length Ebola GP on pseudotyped lentivirus (Zaire ebolavirus, UniProt Q05320 33-676)
T1 sequence: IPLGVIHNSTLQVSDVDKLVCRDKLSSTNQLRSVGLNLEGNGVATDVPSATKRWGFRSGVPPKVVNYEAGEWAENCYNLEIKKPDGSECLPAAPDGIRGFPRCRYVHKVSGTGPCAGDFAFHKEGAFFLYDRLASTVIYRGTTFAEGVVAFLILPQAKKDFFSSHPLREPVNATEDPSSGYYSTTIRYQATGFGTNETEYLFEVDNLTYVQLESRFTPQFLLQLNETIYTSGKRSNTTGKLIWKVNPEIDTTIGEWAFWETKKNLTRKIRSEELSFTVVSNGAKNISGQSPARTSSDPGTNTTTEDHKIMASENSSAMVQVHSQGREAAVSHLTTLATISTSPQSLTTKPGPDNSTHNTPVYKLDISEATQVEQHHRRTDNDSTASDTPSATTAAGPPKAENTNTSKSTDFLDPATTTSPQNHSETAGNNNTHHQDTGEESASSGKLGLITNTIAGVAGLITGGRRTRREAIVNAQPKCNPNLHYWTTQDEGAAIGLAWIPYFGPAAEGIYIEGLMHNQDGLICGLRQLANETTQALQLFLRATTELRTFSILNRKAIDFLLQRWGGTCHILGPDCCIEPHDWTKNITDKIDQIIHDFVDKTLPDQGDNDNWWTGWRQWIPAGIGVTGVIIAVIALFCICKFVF

B1: mAb114 VH D42G-A68T-S79Y / VL V43A IgG (antibody, V domains shown)
VH: EVQLVESGGGLIQPGGSLRLSCAASGFALRMYDMHWVRQTIGKRLEWVSAVGPSGDTYYADSVKGRFTVSRENAKNSLYLQMNSLTAGDTAIYYCVRSDRGVAGLFDSWGQGILVTVSS
VL: DIQMTQSPSSLSASVGDRITITCRASQAFDNYVAWYQQRPGKAPKLLISAASALHAGVPSRFSGSGSGTHFTLTISSLQPEDVATYYCQNYNSAPLTFGGGTKVEIK
B2: mAb114 VH D42G-A68T-S79Y / VL V43A Fab (Fab, V domains shown)
VH: B1 VH
VL: B1 VL
B3: mAb114 WT Fab (Fab, V domains shown)
VH: B1 VH with G42D, T68A, Y79S
VL: B1 VL with A43V
B4: mAb114 WT IgG (antibody, V domains shown)
VH: B1 VH with G42D, T68A, Y79S
VL: B1 VL with A43V
B5: mAb114 UCA VH P60A-G61D / VL V43A IgG (antibody, V domains shown)
VH: EVQLVESGGGLVQPGGSLRLSCAASGFTFSSYDMHWVRQATGKGLEWVSAIGTAGDTYYADSVKGRFTISRENAKNSLYLQMNSLRAGDTAVYYCVRSDRGVAGLFDSWGQGTLVTVSS
VL: DIQMTQSPSSLSASVGDRVTITCRASQGISNYLAWYQQKPGKAPKLLIYAASTLQSGVPSRFSGSGSGTDFTLTISSLQPEDVATYYCQKYNSAPLTFGGGTKVEIK
B6: mAb114 UCA VL V43A IgG (antibody, V domains shown)
VH: B5 VH with A60P, D61G
VL: B5 VL
B7: mAb114 UCA VH G88E IgG (antibody, V domains shown)
VH: B5 VH with A60P, D61G, G88E
VL: B5 VL with A43V
B8: mAb114 UCA VH T41P-P60A-G61D-E72D-G88E-V96A / VL V43A IgG (antibody, V domains shown)
VH: B5 VH with T41P, E72D, G88E, V96A
VL: B5 VL
B9: mAb114 UCA VH P60A-G61D / VL V43A Fab (Fab, V domains shown)
VH: B5 VH
VL: B5 VL
B10: mAb114 UCA VH V96A / VL V43A IgG (antibody, V domains shown)
VH: B5 VH with A60P, D61G, V96A
VL: B5 VL
B11: mAb114 UCA VH P60A-G61D IgG (antibody, V domains shown)
VH: B5 VH
VL: B5 VL with A43V
B12: mAb114 UCA VH P60A-G61D-G88E-V96A / VL V43A IgG (antibody, V domains shown)
VH: B5 VH with G88E, V96A
VL: B5 VL
B13: mAb114 UCA VH T41P-P60A-G61D-E72D-G88E-V96A IgG (antibody, V domains shown)
VH: B5 VH with T41P, E72D, G88E, V96A
VL: B5 VL with A43V
B14: mAb114 UCA VH V96A IgG (antibody, V domains shown)
VH: B5 VH with A60P, D61G, V96A
VL: B5 VL with A43V
B15: mAb114 UCA VH G88E / VL V43A IgG (antibody, V domains shown)
VH: B5 VH with A60P, D61G, G88E
VL: B5 VL
B16: mAb114 UCA WT IgG (antibody, V domains shown)
VH: B5 VH with A60P, D61G
VL: B5 VL with A43V
B17: mAb114 UCA VH E72D IgG (antibody, V domains shown)
VH: B5 VH with A60P, D61G, E72D
VL: B5 VL with A43V
B18: mAb114 UCA WT Fab (Fab, V domains shown)
VH: B5 VH with A60P, D61G
VL: B5 VL with A43V
B19: mAb114 UCA VL K90Q IgG (antibody, V domains shown)
VH: B5 VH with A60P, D61G
VL: B5 VL with A43V, K90Q

Assays:
[1] = target: T2, Ebola GP ectodomain (Mayinga, Zaire, 1976) with the mucin-like domain deleted (Zaire ebolavirus (Mayinga, 1976), UniProt Q05320 33-650)
[2] = target: T1, full-length Ebola GP on pseudotyped …; experiment: cell-based or functional assay
[3] = target: T2, Ebola GP ectodomain (Mayinga, Zaire, …); remark: listed apart in the source
[4] = target: T2, Ebola GP ectodomain (Mayinga, Zaire, …); remark: listed apart in the source
[5] = target: T2, Ebola GP ectodomain (Mayinga, Zaire, …); experiment: BLI, Fab
[6] = target: T2, Ebola GP ectodomain (Mayinga, Zaire, …); remark: listed apart in the source
[7] = target: T2, Ebola GP ectodomain (Mayinga, Zaire, …); experiment: BLI, IgG
[8] = target: T2, Ebola GP ectodomain (Mayinga, Zaire, …); experiment: BLI, Fab; remark: listed apart in the source

| Binder | Kd [6] [nM] | also measured |
| --- | --- | --- |
| B1 | – | Kd [1]: < 0.001 nM; Ebola GP pseudotyped lentivirus IC50 [2]: 0.96 nM |
| B2 | – | fold improvement in Kd vs wildtype [3]: 3 fold; Kd [4]: 0.06 nM |
| B3 | – | Kd [5]: 0.17 nM |
| B4 | – | Kd [1]: < 0.001 nM |
| B5 | 5 | fold improvement in Kd over wildtype [1]: 90 fold |
| B6 | 60 | – |
| B7 | 150 | – |
| B8 | 15 | – |
| B9 | 480 | – |
| B10 | 22 | – |
| B11 | 120 | – |
| B12 | 13 | – |
| B13 | 33 | – |
| B14 | 110 | – |
| B15 | 13 | – |
| B16 | – | Kd [7]: 400 nM |
| B17 | 200 | – |
| B18 | – | Kd [8]: 75000 nM |
| B19 | 620 | – |
